The values below come from the nanobody polyreactivity screen of Harvey et al. (2022).

The series in a line: yeast display, Sf9 membrane polyspecificity reagent, FACS + sequencing; frameworks hold sequencing errors. A digest of the protocol:
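A synthetic nanobody library was expressed on Saccharomyces cerevisiae BJ5465 by galactose induction for 36–48 hours. The library was stained for 1 hour at 4 °C with 10% biotinylated, detergent-solubilized Sf9 membrane reagent and enriched with streptavidin microbeads before FACS. Low and high (top ~1%) gates were set on anti-HA fluorescence for expression and streptavidin fluorescence for reagent binding, and each polyreactivity label reflects the gate of origin.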
As for “QVQLVESGGGLVQAGGSLRLSCAASGSTFVRNAMGWYRQAPGKERELVAAITSSGGSTYYADSVKGRFTISRDNAKNTVYLQMNSLKPVDTAVYYCNARVPPQGWGPWKAFDYWGQGTQVTVSS”, the “polyreactivity (PSR sort gate)” value is “low polyreactivity”.

As to “QVQLVESGGGLVQAGGSLRLSCAASGSTFVRYAMGWYRQAPGKEREFVASITCRGGSTYYADSVKGRFTITRDNAKNTVYLQMNSLKPEDTAVYYCAARGREWYYWGQGTQVTVSS”, the “polyreactivity (PSR sort gate)” value is “high polyreactivity”.

Consider “QVQLVESGGGLVQAGGSLRLSCAASGSTFVSNAMGWYRQAPGKERELVARITGSGGNTYYADSVKGRFTISRDNAKNTVYLQMNSLKPEDTAVYYCNADVFRKFGSPSAYKSHRYDYWGQGTQVTVSS”, for which the “polyreactivity (PSR sort gate)” value is listed as “low polyreactivity”.

Take “QVQLVESGGGLVQAGGSLRLSCAASGSTFVSNTMGWYRQAPGKERELVAAITWTGGRTYYADSVKGRFTISRDNAKNTVYLQMNSLKPEDTAVYYCAAVGTRKMYYWGQGTQVTVSS”: the “polyreactivity (PSR sort gate)” value is reported as “high polyreactivity”.

Turning to “QVQLVESGGGLVQAGGSLRLSCAASGSTFVTNAMGWYRQAPGKEREFVAAISNSSGSTYYADSVKGRFTISRDNAKNTVYLQMNSLKPEDTAVYYCIATPDDWLQEDYWGQGTQVTVSS”, the “polyreactivity (PSR sort gate)” value was “low polyreactivity”.

Regarding “QVQLVESGGGLVQAGGSLRLSCAASGSTFVTNGMGWYRQEPGKERELVAAISGNVGSTYYADSVKGRFTISRDNEKNTVYLQMNSLKPEDTAVYYCAARQYRPSDYDYWGQGTQVTVSS”, the “polyreactivity (PSR sort gate)” value is reported as “low polyreactivity”.

Take “QVQLVESGGGLVQAGGSLRLSCAASGSTFVTNVMGWYRQATGKERELVAAISYSGGNTYYEDSVKGRFTISRDNAKNTVYLQMNSLKPEDTAVYYCAAKYRRWGMEYWGQGTQVTVSS”: the “polyreactivity (PSR sort gate)” value is “high polyreactivity”.

Turning to “QVQLVESGGGLVQAGGSLRLSCAASGSTFVTYAMGRYRQAPGKERELVAAISSAGSTNYADSVKGRFTISRDNAKNTVYLQMNSLKPEDTAVYYCARDIQDTYEFDYWGQGTQVTVSS”, the “polyreactivity (PSR sort gate)” value is given as “low polyreactivity”.

For the sequence “QVQLVESGGGLVQAGGSLRLSCAASGSTFVTYTMGWYRQAPGKEREFVATISRSGCSTYYADSVKGRFTISRDNAKNTVYLQMNSLKPEDTAVYYCAAVRLVISKYWYIPYDYWGQGTQVTVSS”, the “polyreactivity (PSR sort gate)” value was “low polyreactivity”.

With “QVQLVESGGGLVQAGGSLRLSCAASGSTFVVNAMGWYRQAPGKERELVAAITQSGGSTFYADSVKGRFTISRDNAKNTVYLQMNSLKPEDTAVYYWGLGTQVTVSS”, the “polyreactivity (PSR sort gate)” value is on record as “low polyreactivity”.

“QVQLVESGGGLVQAGGSLRLSCAASGSTFVVNAMVWYRQAPGKERELVAAITQDGDGTYYADSVKGRFTISRDNAKNTVYLQMNSLKPEDTAVYYCAAYPFYGPYDEFDYWGQGTQVTVSS”: the “polyreactivity (PSR sort gate)” value was “low polyreactivity”.

In the case of “QVQLVESGGGLVQAGGSLRLSCAASGSTFVVYAMGWYRQAPGKEREFVAAITYRGGRTYYADSVKGRFTISRDNAKNTVYLQMNSLKPEDTAVYYCNAPIVRSGYVRSIPAVYYSYYYWGQGTQVTVSS”, the “polyreactivity (PSR sort gate)” value was “high polyreactivity”.

“QVQLVESGGGLVQAGGSLRLSCAASGSTFVWNAMGWYRQAPGKERELVAAITNDGRTNYADSVKGRFTISRDNAKNTVYLQMNSLKPEDTAVYYCNADGFNSYWWNYYWGQGTQVTVSS”: the “polyreactivity (PSR sort gate)” value is “low polyreactivity”.

As to “QVQLVESGGGLVQAGGSLRLSCAASGSTFVWNAMGWYRQAPGKERELVATITLSTGSTYYADSVKGRFTISRDNAKNTVYLQMNSLKPEDTAVYYCNTEIYVDIISDYGYWGQGTQVTVSS”, the “polyreactivity (PSR sort gate)” value is “low polyreactivity”.

Turning to “QVQLVESGGGLVQAGGSLRLSCAASGSTFVYAMVWYRPAPGKERELVAAITTGDSTYYADSVKGRFTISRDNAKNTVYLQMNSLKPEDTAVYYCAAQWYTRDGEYGYWGQGTQVTVSS”, the “polyreactivity (PSR sort gate)” value is recorded as “low polyreactivity”.

As to “QVQLVESGGGLVQAGGSLRLSCAASGSTFVYNAMGWYRQAPGKERELVAAISRGGGITYYADSVKGRFTISRDNAKNTVYLQMNSLKPEDTAVYYCNKSRYKSYSYDYWGQGTQVTVSS”, the “polyreactivity (PSR sort gate)” value is “high polyreactivity”.

As to “QVQLVESGGGLVQAGGSLRLSCAASGSTFVYNDMGWYRQAPGKEREFVAAITYSGSTYYADSVNGRFTISRDNAKNTVYLQMNSLKPEDTAVYYCNADPRRPVTSYDYWGQGTQVTVSS”, the “polyreactivity (PSR sort gate)” value is recorded as “low polyreactivity”.

For the sequence “QVQLVESGGGLVQAGGSLRLSCAASGSTFVYYAMGRYRQAPGKERELVAAITASGGGTYYADSVKGRFTISRDNAKNTVYLQMNSLKPEDTAVYYCNRGYDYWGQGTQVTVSS”, the “polyreactivity (PSR sort gate)” value is on record as “low polyreactivity”.

Turning to “QVQLVESGGGLVQAGGSLRLSCAASGSTFVYYAMGWSRQAPGKERELVASIRTGGTTNYADSVKGRFTISRDNAKNTVYLQMNSLKPEDTAVYYCNKDTRPTDTTVSLYYWSAWRDYWGQGTQVTVSS”, the “polyreactivity (PSR sort gate)” value is “low polyreactivity”.

For “QVQLVESGGGLVQAGGSLRLSCAASGSTFVYYAMGWYIQAPGKEREFVAGISRSGGSTYYADSVKGRFTISRDNAMNTVYLQMNSLKPEDTAVYSCNASGGLPKYGYWGQGTQVTVSS”, the “polyreactivity (PSR sort gate)” value was “high polyreactivity”.

In the case of “QVQLVESGGGLVQAGGSLRLSCAASGSTFVYYDMGWYRQAPGKERELVADISDSGGSTNYADSVKGRFTISRDNAKNTVYLQMNSLKPEDTAVYYCAADSADPTEYDYWGQGTQVTVSS”, the “polyreactivity (PSR sort gate)” value is reported as “low polyreactivity”.

Take “QVQLVESGGGLVQAGGSLRLSCAASGSTFVYYTMGWYRPAPGKERELVAAITSGTSTNYADSVKGRFTISRDNAKNTVYLQMNSLKPEDTAVYDCNAQRRGTYYWGQGTQVTVSS”: the “polyreactivity (PSR sort gate)” value is given as “high polyreactivity”.

On to “QVQLVESGGGLVQAGGSLRLSCAASGSTFWANAMGWYRQAPGKERELVAGITWNAGSTYYADSVKGRFTISRDYAKNNVYFQMNSLNPEDTAVDYCAAYYHFQGWGPGYNSWGQGTQVTVSS”, for which the “polyreactivity (PSR sort gate)” value is “low polyreactivity”.

As for “QVQLVESGGGLVQAGGSLRLSCAASGSTFWDYAMGWYRQAPGKERELVAAISSGGSTNYADSVKGRFTISRDNAKNTVYLQMNSLKPEDTAVYYCAVGYGGYYYWGQGTQVTVSS”, the “polyreactivity (PSR sort gate)” value is on record as “high polyreactivity”.

Regarding “QVQLVESGGGLVQAGGSLRLSCAASGSTFWDYAMGWYRQAPGKERELVAAISTSGGSTYYADSVKGRFTISRDNAKNTVYLQMNSLKPEDTAVYYCAAGRVRRRVWYNYWGQGTQVTVSS”, the “polyreactivity (PSR sort gate)” value is on record as “high polyreactivity”.

Turning to “QVQLVESGGGLVQAGGSLRLSCAASGSTFWDYAMGWYRQSPGKERELVAGITYSGTSTYYADSVKARFTISRDHAKNTVYLQMNSLKPEDTAVYYCAAESQAVGWWTPGYDYWGQGTQVTVSS”, the “polyreactivity (PSR sort gate)” value is “low polyreactivity”.

Consider “QVQLVESGGGLVQAGGSLRLSCAASGSTFWFNAMGGSRQAPGKERELVAAIPSRGGYTYYADSVKGRFTISRDHAKNTVYLQMNSLKPEDTAVYYCAADYRYSSRKVFHFDYWGQGTQVTVSS”, for which the “polyreactivity (PSR sort gate)” value was “low polyreactivity”.

As for “QVQLVESGGGLVQAGGSLRLSCAASGSTFWFNDMGWYRQAPGKEREFVAAISSIGGSTYYADSVKGRFTISRDNAKNNVNLQMNSLKPEDTAVYYCAVEVVRVYRYDYWGQGTQVTVSS”, the “polyreactivity (PSR sort gate)” value is given as “low polyreactivity”.

In the case of “QVQLVESGGGLVQAGGSLRLSCAASGSTFWFYAMGWYRQAPGTERELVAVISNSGSTYYADSVKGRFTISRDNAKNTVYLQMNSLKPEDTEVYYCNKDGGGDSYWYDYWGQGTQVTVSS”, the “polyreactivity (PSR sort gate)” value is listed as “low polyreactivity”.

Regarding “QVQLVESGGGLVQAGGSLRLSCAASGSTFWGNAMGWYRQAPGKERELVAAIDWSGGRTYYADSVKGRFTISRDNAKNTVYLQMNSLKPEDTAVYYCATRAWRGYGPYDYWGQGTQVTVSS”, the “polyreactivity (PSR sort gate)” value is “high polyreactivity”.

In the case of “QVQLVESGGGLVQAGGSLRLSCAASGSTFWGNAMGWYRQAPGKERELVAAISNGGSTNYADSVKGRFTISRDNAKNTVYLQMNSLKPEDTAVYYCAADGHTSNGVSLHGYWGQGTQVTVSS”, the “polyreactivity (PSR sort gate)” value was “low polyreactivity”.

On to “QVQLVESGGGLVQAGGSLRLSCAASGSTFWGNAMGWYRQAPGKERELVAAISWIGGGTYYADSVKGRFTISRDNAKNTVYLQMNSLKPEDTAVYYCAAKIFIRVHYYSYRMYYWGQGTQVTVSS”, for which the “polyreactivity (PSR sort gate)” value is reported as “low polyreactivity”.

As for “QVQLVESGGGLVQAGGSLRLSCAASGSTFWIYAMGWYIQAPGTERELVAAITLRSGSTYYADSVKGRFTISRDNAKNTVYLQMISLKPEDTAVYYCATDSWGVDRPNYNYWGQGTQVTVSS”, the “polyreactivity (PSR sort gate)” value is given as “low polyreactivity”.

Turning to “QVQLVESGGGLVQAGGSLRLSCAASGSTFWKYVIGWYRQEPGKERELVAAITSRGGSTYADSVKGRFTISRDNAKNTVYLQMNSLKPEDTAVYYCAATKFWYYGYDYWGQGTQVTVSS”, the “polyreactivity (PSR sort gate)” value is on record as “low polyreactivity”.

Turning to “QVQLVESGGGLVQAGGSLRLSCAASGSTFWLYAMGWYRQAPGKERELVASISSRGGSTYYADSVKGRFTISRDNAKNTVYLQMNSLKPEDTAVYYCAAKDIRYDDDYWGQGTQVTVSS”, the “polyreactivity (PSR sort gate)” value is on record as “low polyreactivity”.

In the case of “QVQLVESGGGLVQAGGSLRLSCAASGSTFWTYTMGWYRQAPGKERELVAVISSTGGDTYYADSVKGRFTISRDNAKNTVYLQMNSLKPEDTAVYYCAARIRRWYAGYGGYYWGQGTQVTVSS”, the “polyreactivity (PSR sort gate)” value is “high polyreactivity”.

For “QVQLVESGGGLVQAGGSLRLSCAASGSTFWVYAMGWYRQAPGKERELVASITFSGSSTYYADSVKGRFTISRDNAKNTVYLQMNSLKPEDTAVYYCAAGEGGDRSRGYLSQYGYWGQGTQVTVSS”, the “polyreactivity (PSR sort gate)” value was “low polyreactivity”.

As for “QVQLVESGGGLVQAGGSLRLSCAASGSTFWYAMGWYRQAPGKERELVAAITARGGRTYYADSVKGRFTISRDNAKHTVYLQLISLKPEDTAVYYCARLSYAGGQWIIGKYDYWGQGTQVTVSS”, the “polyreactivity (PSR sort gate)” value was “high polyreactivity”.

On to “QVQLVESGGGLVQAGGSLRLSCAASGSTFWYYALGWYRQAPGKERELVAAIRWSDGSTYYADSVKGRFTSSRDNAKNTVYLQMNSLKPEDTAVYYCEYYYWGQGTQVTVSS”, for which the “polyreactivity (PSR sort gate)” value is reported as “low polyreactivity”.

On to “QVQLVESGGGLVQAGGSLRLSCAASGSTFWYYAMGWSRQAPGKERELVADITYSGVSTYYADSVKGRFTISRDNAKNTVYLQMNSLKPEDTAVYYCNAVWGSVKGYSGYYYWGPGTQVTVSS”, for which the “polyreactivity (PSR sort gate)” value is reported as “low polyreactivity”.

Consider “QVQLVESGGGLVQAGGSLRLSCAASGSTFWYYAMGWYRQAPGKEREFVAAITTSAGRTYDADSVKGRFTISRDHAKNTVYLQMNSLKPEDTAVYYCAAEPRQYWEYNYWGQGTQVTVSS”, for which the “polyreactivity (PSR sort gate)” value is listed as “high polyreactivity”.
